# US20170056486A1
# Molecular target: HLA-A*24 (human)
# Assay: UV-exchange ELISA (anti-b2m); yield >=75%
row,Binder,peptide exchange yield [%]
1,TYNPNLQDKL,> 75
2,IYISNSIYF,> 75
3,VFTTSSNIF,> 75
4,RYVFPLPYL,> 75
5,SYLTWHQQI,> 75
6,IFTDIFHYL,> 75
7,RYLTISNLQF,> 75
8,LYTETRLQF,> 75
9,VYMNVMTRL,> 75
10,FYPQIINTF,> 75
11,VYEAMVPLF,> 75
12,AFGQETNVPLNNF,> 75
13,QYLVHVNDL,> 75
14,TYTFLKETF,> 75
15,GYIKLINFI,> 75
16,TYLEKIDGF,> 75
17,KYGDFKLLEF,> 75
18,YYMELTKLLL,> 75
19,AFPTFSVQL,> 75
20,KYIDYLMTW,> 75
21,RYPALFPVL,> 75
22,VFIFKGNEF,> 75
23,VYSSQFETI,> 75

row,Binder,peptide exchange yield [%]
1,GYIRGSWQF,> 75
2,SYGTVSQI,> 75
3,AFIETPIPLF,> 75
4,KQLDIANYELF,> 75
5,KYIGNLDLL,> 75
6,IYSVGAFENF,> 75
7,IYAGVGEFSF,> 75
8,SYQVIFQHF,> 75
9,GYIEHFSLW,> 75
10,TFITQSPLL,> 75
11,QYLEKYYNL,> 75
12,RYLINSYDF,> 75
13,RYHPTTCTI,> 75
14,AYVIAVHLF,> 75
15,IYKWITDNF,> 75
16,SYGTILSHI,> 75
17,QYILAVPVL,> 75
18,NYLDVATFL,> 75
19,LFITGGQFF,> 75
20,AFADVSVKF,> 75
21,SYLNEAFSF,> 75
22,TYIDTRTVF,> 75
23,KYGTLDVTF,> 75

# Results, then the binder that gave them:
row,peptide exchange yield [%],Binder
1,> 75,EYLHNCSYF
2,> 75,QYLDGTWSL
3,> 75,VYGVPTPHF
4,> 75,AYAQLGYLLF
5,> 75,VYVPFGGKSMITF
6,> 75,SYGTVSQIF
7,> 75,VYPHFSTTNLI
8,> 75,YYTQYSQTI
9,> 75,FYTLPFHLI
10,> 75,QYPFHVPLL
11,> 75,AYAANVHYL
12,> 75,VFKSEGAYF
13,> 75,FFHEGQYVF
14,> 75,VFASLPGFLF
15,> 75,QYLDVLHAL
16,> 75,RFLMKSYSF
17,> 75,SYSEIKDFL
18,> 75,VYPFDWQYI

# Molecular target: HLA-A*24 (human)
# Assay: UV-exchange ELISA (anti-b2m); yield 50%-75%
row,peptide exchange yield [%],Binder
1,50 to 75,KYPASSSVF
2,50 to 75,RYFDVGLHNF
3,50 to 75,IYGEKTYAF
4,50 to 75,RYKPGEPITF
5,50 to 75,VYIAELEKI
6,50 to 75,QYIEELQKF
7,50 to 75,QYTPHSHQF
8,50 to 75,TFSDVEAHF
9,50 to 75,VYTPVASRQSL
10,50 to 75,KYTEKLEEI
11,50 to 75,AYLPPLQQVF
